Test results: US20250277020A1 (Boehringer Ingelheim, published 2025)

T1: Full-length human CTGF (human, UniProt P29279 27-349)
T1 construct: Corresponds to NCBI NP_001892.1 with the signal peptide omitted; purchased from R&D Systems; also called hCTGF full length; full length CTGF
T1 sequence: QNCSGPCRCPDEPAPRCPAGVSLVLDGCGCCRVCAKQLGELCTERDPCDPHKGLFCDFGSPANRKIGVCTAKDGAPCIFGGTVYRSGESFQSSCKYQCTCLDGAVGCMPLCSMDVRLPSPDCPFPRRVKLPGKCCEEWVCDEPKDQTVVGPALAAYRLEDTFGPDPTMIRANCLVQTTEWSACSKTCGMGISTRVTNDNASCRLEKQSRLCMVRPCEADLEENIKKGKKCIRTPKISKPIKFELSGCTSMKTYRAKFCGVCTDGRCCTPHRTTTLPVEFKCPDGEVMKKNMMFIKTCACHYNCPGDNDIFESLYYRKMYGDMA


Biological target: T1, Full-length human CTGF
Experiment: SPR, full length CTGF

Row | Binder | Kd | binding result
1 | A50 (antibody, human IgG1, kappa, L234A L235A, V domains shown) VH: EVQLVESGGGLVQPGGSLRLSCAASGFTFSDYYMAWVRQAPGKGLEWVANINYYGSRTDLLESLKSRFTISRDNAKNSVYLQMNSLRAEDTAVYYCARDTSRGSYFDVWGAGTTVTVSS VL: VVMTQTPLSLPVSLGDQASISCRSSQSIVHYNENTYLEWYLQKPGQSPQLLIYKVSNRFSGVPDRFSGSGSGTDFTLKISRVEAEDLGVYYCFQGSHFPLTFGQGTKLEIKR | 0.26 nM | 
2 | A37 (antibody, human IgG1, kappa, L234A L235A, V domains shown) VH: EVQLVESGGGLVQPGGSLRLSCAASGFTFSDYYMAWVRQAPGKGLEWVANINYDGSRTDLLDSLKSRFTISRDNAKNSVYLQMNSLRAEDTAVYYCARDTSRGSYFDVWGAGTTVTVSS VL: VVMTQTPLSLSVSLGDQASISCKSSQSIVHYNENTYLEWYLQKPGQSPQLLIYKVSSRFSGVPDRFSGSGSGTDFTLKISRVEAEDLGVYYCFQGSHFPLTFGQGTKLEIKR |  | no binding
3 | A45 (antibody, human IgG1, kappa, L234A L235A) light: VVMTQTPLSLSVSLGDQASISCKSSQSIVHYNENTYLEWYLQKPGQSPQLLIYKVSSRASGVPDRFSGSGSGTDFTLKISRVEAEDLGVYYCFQGSHFPLTFGQGTKLEIKRTVAAPSVFIFPPSDEQLKSGTASVVCLLNNFYPREAKVQWKVDNALQSGNSQESVTEQDSKDSTYSLSSTLTLSKADYEKHKVYACEVTHQGLSSPVTKSFNRGEC heavy: not shown |  | no binding
4 | A23 (antibody, human IgG1, kappa, L234A L235A, V domains shown) VH: EVQLVESGGGLVQPGGSLRLSCAASGFTFSDYYMAWVRQAPGKGLEWVANINYDGSRTDLLESLKSRFTISRDNAKNSVYLQMNSLRAEDTAVYYCARDTSRGSYFDVWGAGTTVTVSS VL: VVMTQTPLSLSVSLGDQASISCKSSQSIVHYNGKTYLEWYLQKPGQSPQLLIYKVSSRFSGVPDRFSGSGSGTDFTLKISRVEAEDLGVYYCFQGSHFPLTFGQGTKLEIKR | 0.23 nM | 
5 | A53 (antibody, human IgG1, kappa, L234A L235A) light: VVMTQTPLSLPVSLGDQASISCRSSQSIVHYNENTYLEWYLQKPGQSPQLLIYKVSNRFSGVPDRFSGSGSGTDFTLKISRVEAEDLGVYYCFQGSHFPLTFGQGTKLEIKRTVAAPSVFIFPPSDEQLKSGTASVVCLLNNFYPREAKVQWKVDNALQSGNSQESVTEQDSKDSTYSLSSTLTLSKADYEKHKVYACEVTHQGLSSPVTKSFNRGEC heavy: not shown | 0.36 nM | 
6 | A35 (antibody, human IgG1, kappa, L234A L235A, V domains shown) VH: EVQLVESGGGLVQPGGSLRLSCAASGFTFSDYYMAWVRQAPGKGLEWVANINYEGSRTDLLASLKSRFTISRDNAKNSVYLQMNSLRAEDTAVYYCARDTSRGSYFDVWGAGTTVTVSS VL: VVMTQTPLSLSVSLGDQASISCKSSQSIVHYNENTYLEWYLQKPGQSPQLLIYKVSSRFSGVPDRFSGSGSGTDFTLKISRVEAEDLGVYYCFQGSHFPLTFGQGTKLEIKR |  | no binding
7 | A24 (antibody, human IgG1, kappa, L234A L235A) light: VVMTQTPLSLSVSLGDQASISCKSSQSIVHYNGKTYLEWYLQKPGQSPQLLIYKVSSRFSGVPDRFSGSGSGTDFTLKISRVEAEDLGVYYCFQGSHFPLTFGQGTKLEIKRTVAAPSVFIFPPSDEQLKSGTASVVCLLNNFYPREAKVQWKVDNALQSGNSQESVTEQDSKDSTYSLSSTLTLSKADYEKHKVYACEVTHQGLSSPVTKSFNRGEC heavy: not shown | 0.23 nM | 
8 | A34 (antibody, human IgG1, kappa, L234A L235A, V domains shown) VH: EVQLVESGGGLVQPGGSLRLSCAASGFTFSDYYMAWVRQAPGKGLEWVANINYYGSRTDLLESLKSRFTISRDNAKNSVYLQMNSLRAEDTAVYYCARDTSRGSYFDVWGAGTTVTVSS VL: VVMTQTPLSLSVSLGDQASISCKSSQSIVHYNENTYLEWYLQKPGQSPQLLIYKVSSRFSGVPDRFSGSGSGTDFTLKISRVEAEDLGVYYCFQGSHFPLTFGQGTKLEIKR |  | no binding
9 | A47 (antibody, human IgG1, kappa, L234A L235A, V domains shown) VH: EVQLVESGGGLVQPGGSLRLSCAASGFTFSDYYMAWVRQAPGKGLEWVANINYDGSRTDLLESLKSRFTISRDNAKNSVYLQMNSLRAEDTAVYYCARDTSRGSYFDVWGAGTTVTVSS VL: VVMTQTPLSLSVSLGDQASISCKSSQSIVHYNENTYLEWYLQKPGQSPQLLIYKVSSRASGVPDRFSGSGSGTDFTLKISRVEAEDLGVYYCFQGSHFPLTFGQGTKLEIKR |  | no binding
10 | A51 (antibody, human IgG1, kappa, L234A L235A, V domains shown) VH: EVQLVESGGGLVQPGGSLRLSCAASGFTFSDYYMAWVRQAPGKGLEWVANINYEGSRTDLLASLKSRFTISRDNAKNSVYLQMNSLRAEDTAVYYCARDTSRGSYFDVWGAGTTVTVSS VL: VVMTQTPLSLPVSLGDQASISCRSSQSIVHYNENTYLEWYLQKPGQSPQLLIYKVSNRFSGVPDRFSGSGSGTDFTLKISRVEAEDLGVYYCFQGSHFPLTFGQGTKLEIKR | 0.25 nM | 
11 | A48 (antibody, human IgG1, kappa, L234A L235A) light: VVMTQTPLSLSVSLGDQASISCKSSQSIVHYNENTYLEWYLQKPGQSPQLLIYKVSSRASGVPDRFSGSGSGTDFTLKISRVEAEDLGVYYCFQGSHFPLTFGQGTKLEIKRTVAAPSVFIFPPSDEQLKSGTASVVCLLNNFYPREAKVQWKVDNALQSGNSQESVTEQDSKDSTYSLSSTLTLSKADYEKHKVYACEVTHQGLSSPVTKSFNRGEC heavy: not shown | 0.23 nM | 
12 | A52 (antibody, human IgG1, kappa, L234A L235A, V domains shown) VH: EVQLVESGGGLVQPGGSLRLSCAASGFTFSDYYMAWVRQAPGKGLEWVANINYYGSRTDLLASLKSRFTISRDNAKNSVYLQMNSLRAEDTAVYYCARDTSRGSYFDVWGAGTTVTVSS VL: VVMTQTPLSLPVSLGDQASISCRSSQSIVHYNENTYLEWYLQKPGQSPQLLIYKVSNRFSGVPDRFSGSGSGTDFTLKISRVEAEDLGVYYCFQGSHFPLTFGQGTKLEIKR | 0.27 nM | 
13 | A49 (antibody, human IgG1, kappa, L234A L235A, V domains shown) VH: EVQLVESGGGLVQPGGSLRLSCAASGFTFSDYYMAWVRQAPGKGLEWVANINYEGSRTDLLESLKSRFTISRDNAKNSVYLQMNSLRAEDTAVYYCARDTSRGSYFDVWGAGTTVTVSS VL: VVMTQTPLSLPVSLGDQASISCRSSQSIVHYNENTYLEWYLQKPGQSPQLLIYKVSNRFSGVPDRFSGSGSGTDFTLKISRVEAEDLGVYYCFQGSHFPLTFGQGTKLEIKR | 0.3 nM | 
14 | A36 (antibody, human IgG1, kappa, L234A L235A, V domains shown) VH: EVQLVESGGGLVQPGGSLRLSCAASGFTFSDYYMAWVRQAPGKGLEWVANINYYGSRTDLLASLKSRFTISRDNAKNSVYLQMNSLRAEDTAVYYCARDTSRGSYFDVWGAGTTVTVSS VL: VVMTQTPLSLSVSLGDQASISCKSSQSIVHYNENTYLEWYLQKPGQSPQLLIYKVSSRFSGVPDRFSGSGSGTDFTLKISRVEAEDLGVYYCFQGSHFPLTFGQGTKLEIKR |  | no binding

Further lines, results first:

Row | Kd | binding result | Binder
15 | 0.21 nM |  | A22 (antibody, human IgG1, kappa, L234A L235A, V domains shown) VH: EVQLVESGGGLVQPGGSLRLSCAASGFTFSDYYMAWVRQAPGKGLEWVANINYEGSRTDLLDSLKSRFTISRDNAKNSVYLQMNSLRAEDTAVYYCARDTSRGSYFDVWGAGTTVTVSS VL: VVMTQTPLSLSVSLGDQASISCKSSQSIVHYNGKTYLEWYLQKPGQSPQLLIYKVSSRFSGVPDRFSGSGSGTDFTLKISRVEAEDLGVYYCFQGSHFPLTFGQGTKLEIKR
16 | 0.16 nM |  | A44 (antibody, human IgG1, kappa, L234A L235A, V domains shown) VH: EVQLVESGGGLVQPGGSLRLSCAASGFTFSDYYMAWVRQAPGKGLEWVANINYYGSRTDLLASLKSRFTISRDNAKNSVYLQMNSLRAEDTAVYYCARDTSRGSYFDVWGAGTTVTVSS VL: VVMTQTPLSLSVSLGDQASISCKSSQSIVHYNENTYLEWYLQKPGQSPQLLIYKVSSRASGVPDRFSGSGSGTDFTLKISRVEAEDLGVYYCFQGSHFPLTFGQGTKLEIKR
17 | 0.15 nM |  | A42 (antibody, human IgG1, kappa, L234A L235A, V domains shown) VH: EVQLVESGGGLVQPGGSLRLSCAASGFTFSDYYMAWVRQAPGKGLEWVANINYYGSRTDLLESLKSRFTISRDNAKNSVYLQMNSLRAEDTAVYYCARDTSRGSYFDVWGAGTTVTVSS VL: VVMTQTPLSLSVSLGDQASISCKSSQSIVHYNENTYLEWYLQKPGQSPQLLIYKVSSRASGVPDRFSGSGSGTDFTLKISRVEAEDLGVYYCFQGSHFPLTFGQGTKLEIKR
18 | 0.15 nM |  | A43 (antibody, human IgG1, kappa, L234A L235A, V domains shown) VH: EVQLVESGGGLVQPGGSLRLSCAASGFTFSDYYMAWVRQAPGKGLEWVANINYEGSRTDLLASLKSRFTISRDNAKNSVYLQMNSLRAEDTAVYYCARDTSRGSYFDVWGAGTTVTVSS VL: VVMTQTPLSLSVSLGDQASISCKSSQSIVHYNENTYLEWYLQKPGQSPQLLIYKVSSRASGVPDRFSGSGSGTDFTLKISRVEAEDLGVYYCFQGSHFPLTFGQGTKLEIKR
19 | 0.15 nM |  | A25 (antibody, human IgG1, kappa, L234A L235A, V domains shown) VH: EVQLVESGGGLVQPGGSLRLSCAASGFTFSDYYMAWVRQAPGKGLEWVANINYEGSRTDLLESLKSRFTISRDNAKNSVYLQMNSLRAEDTAVYYCARDTSRGSYFDVWGAGTTVTVSS VL: VVMTQTPLSLSVSLGDQASISCKSSQSIVHYNGKTYLEWYLQKPGQSPQLLIYKVSSRASGVPDRFSGSGSGTDFTLKISRVEAEDLGVYYCFQGSHFPLTFGQGTKLEIKR
20 | 0.19 nM |  | A41 (antibody, human IgG1, kappa, L234A L235A, V domains shown) VH: EVQLVESGGGLVQPGGSLRLSCAASGFTFSDYYMAWVRQAPGKGLEWVANINYEGSRTDLLESLKSRFTISRDNAKNSVYLQMNSLRAEDTAVYYCARDTSRGSYFDVWGAGTTVTVSS VL: VVMTQTPLSLSVSLGDQASISCKSSQSIVHYNENTYLEWYLQKPGQSPQLLIYKVSSRASGVPDRFSGSGSGTDFTLKISRVEAEDLGVYYCFQGSHFPLTFGQGTKLEIKR
21 | 0.2 nM |  | A46 (antibody, human IgG1, kappa, L234A L235A, V domains shown) VH: EVQLVESGGGLVQPGGSLRLSCAASGFTFSDYYMAWVRQAPGKGLEWVANINYEGSRTDLLDSLKSRFTISRDNAKNSVYLQMNSLRAEDTAVYYCARDTSRGSYFDVWGAGTTVTVSS VL: VVMTQTPLSLSVSLGDQASISCKSSQSIVHYNENTYLEWYLQKPGQSPQLLIYKVSSRASGVPDRFSGSGSGTDFTLKISRVEAEDLGVYYCFQGSHFPLTFGQGTKLEIKR
